Test results reported in patent publication US20190284280A1 (ANAPTYSBIO, published 2019).

Experiments:
[1] = target: T1, soluble cynomolgus monkey TIM-3 fusion (cynomolgus monkey, UniProt A0A2K5U3G7 22-195); experiment: SPR Biacore T200; captured TIM-3 fusion, antibody flowed over; 1:1 model
T1 construct: The SPR method describes only the human mIgG2a Fc fusion; not shown: mIgG2a Fc i
T1 sequence: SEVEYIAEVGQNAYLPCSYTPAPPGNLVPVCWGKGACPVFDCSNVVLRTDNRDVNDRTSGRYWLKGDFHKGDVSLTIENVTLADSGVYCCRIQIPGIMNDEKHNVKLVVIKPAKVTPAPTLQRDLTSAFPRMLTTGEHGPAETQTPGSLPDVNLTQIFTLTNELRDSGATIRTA

[2] = target: T2, native cynomolgus monkey TIM-3 stably transfected in CHO-K1 cells (cynomolgus monkey, UniProt A0A2K5U3G7 22-294); experiment: flow cytometry on cynomolgus monkey TIM-3 expressing CHO-K1 cells, PE anti-human IgG4 detection
T2 construct: whole, on cells; also called cell-surface cynomolgus monkey TIM-3; cynomolgus monkey TIM-3 expressing CHO-K1 cells
T2 sequence: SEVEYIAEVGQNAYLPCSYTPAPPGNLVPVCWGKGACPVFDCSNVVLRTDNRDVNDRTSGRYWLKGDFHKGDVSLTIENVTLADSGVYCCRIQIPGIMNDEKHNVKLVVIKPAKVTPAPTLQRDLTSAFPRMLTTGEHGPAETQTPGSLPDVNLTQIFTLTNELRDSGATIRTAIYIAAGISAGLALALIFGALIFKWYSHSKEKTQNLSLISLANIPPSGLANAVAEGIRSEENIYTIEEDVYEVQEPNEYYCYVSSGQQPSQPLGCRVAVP
Protocol: (§1) Flow cytometry studies were performed with CHO-K1 cell line clones in which native human or cynomolgus monkey TIM-3 was stably transfected. An exemplary anti-TIM-3 antibody (having heavy and light chains as set forth in SEQ ID NOs: 1 & 2, respectively) was diluted in 3-fold dilutions. Dilutions of exemplary antibody were added to human or cynomolgus monkey TIM-3 expressing CHO-K1 cells (1E5 cells) and incubated on ice. Cells were washed twice and incubated on ice with PE-conjugated goat anti-human IgG4 to detect antibody binding. Cells were washed and resuspended in the presence of propidium iodide to exclude dead cells and fixed before fluorescence was analyzed on a BD FACSArray (BD Biosciences). Data were analyzed for median fluorescence intensity, graphed, and curves fitted for EC₅₀ value calculation in GraphPad Prism (GraphPad Software, Inc.) using a non-linear (sigmoidal) regression analysis.

[3] = target: T3, Dimeric soluble human TIM-3 mIgG2a Fc (human; mouse, UniProt Q8TDQ0 22-200); experiment: SPR Biacore T200; TIM-3 fusion captured on anti-mouse IgG Fc, antibody flowed over; 1:1 model
T3 construct: Captured on an anti-mouse IgG (Fc-specific) Biacore CM5 surface; also called soluble TIM-3 fusion; not shown: mouse IgG2a Fc
T3 sequence (looked up): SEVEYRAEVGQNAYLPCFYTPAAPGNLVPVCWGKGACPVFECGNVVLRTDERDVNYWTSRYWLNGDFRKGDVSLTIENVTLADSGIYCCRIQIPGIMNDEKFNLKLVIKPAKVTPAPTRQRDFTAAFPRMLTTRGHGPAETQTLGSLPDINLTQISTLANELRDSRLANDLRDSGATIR
Protocol: SPR analyses were carried out using a Biacore T200, and kinetic constants were determined using Biacore T200 Evaluation software. […] GE anti-mouse IgG (Fc-specific) was immobilized on a Biacore CM5 chip using EDC-activated amine coupling chemistry. Dimeric soluble human TIM-3 mIgG2a Fc was then captured onto this surface to a target capture level of ˜70 RU or less. Next an exemplary anti-TIM-3 antibody (having heavy and light chains as set forth in SEQ ID NOs: 1 & 2, respectively) was flowed over the surface with captured antigen (TIM-3 fusion). Capture and analyte binding were performed in HBS-EP+ buffer. The captured antigen and antibodies were removed between each cycle to ensure a fresh binding surface for each concentration of […]. The resulting sensorgrams were fitted globally using a 1:1 binding model to calculate on- and off-rates (kassoc and kdissoc, respectively), and dissociation constants as a measure of overall affinity (KD).

[4] = target: T4, native human TIM-3 stably transfected in CHO-K1 cells (human, UniProt Q8TDQ0 22-301); experiment: flow cytometry on human TIM-3 expressing CHO-K1 cells, PE anti-human IgG4 detection
T4 construct: whole, on cells; also called cell-surface human TIM-3; human TIM-3 expressing CHO-K1 cells
T4 sequence (looked up): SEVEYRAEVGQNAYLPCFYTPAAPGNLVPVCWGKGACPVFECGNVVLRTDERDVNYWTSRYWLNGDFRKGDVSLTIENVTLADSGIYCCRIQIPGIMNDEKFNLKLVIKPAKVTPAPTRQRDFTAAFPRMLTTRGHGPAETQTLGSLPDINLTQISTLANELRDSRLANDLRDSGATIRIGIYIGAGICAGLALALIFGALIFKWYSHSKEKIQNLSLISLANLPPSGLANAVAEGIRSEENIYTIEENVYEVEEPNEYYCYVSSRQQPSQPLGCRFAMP
Protocol: as §1

B1: exemplary anti-TIM-3 antibody (having heavy and light chains as set forth in SEQ ID NOs: 1 & 2, respectively) (antibody, human IgG4 S228P, kappa, V domains shown)
VH: EVQLLESGGGLVQPGGSLRLSCAAASGFTFSSYDMSWVRQAPGKGLDWVSTISGGGTYTYYQDSVKGRFTISRDNSKNTLYLQMNSLRAEDTAVYYCASMDYWGQGTTVTVSS
VL: DIQMTQSPSSLSASVGDRVTITCRASQSIRRYLNWYHQKPGKAPKLLIYGASTLQSGVPSRFSGSGSGTDFTLTISSLQPEDFAVYYCQQSHSAPLTFGGGTKVEIKR
modifications: N-glycosylation at asparagine residue 290 of SEQ ID NO:1
notes: Humanized IgG4 (human IGHG4*01) / kappa (IGKC*01); also called exemplary humanized monoclonal anti-TIM-3 antibody; anti-TIM-3 mAb
**Q.** B1 was tested. Which Kd [1] did it give?
**A.** 0.017 nM

**Q.** What about the koff [1] of the same binder?
**A.** 0.00019 s⁻¹

**Q.** What about the kon [1] of the same binder?
**A.** 1.1e+07 M⁻¹ s⁻¹

**Q.** What about the EC50 [2] of the same binder?
**A.** 0.27 nM

**Q.** And the Kd [3]?
**A.** 0.007 nM

**Q.** And the koff [3]?
**A.** 0.00011 s⁻¹

**Q.** What about the kon [3] of the same binder?
**A.** 1.5e+07 M⁻¹ s⁻¹

**Q.** And the EC50 [4]?
**A.** 0.17 nM
